Columns and labels:
[1] = biological target: pUL93 (human cytomegalovirus strain AD169); experiment: cryo-EM structure
[2] = biological target: portal protein pUL104 (human cytomegalovirus strain AD169); experiment: cryo-EM structure

Substance	stoichiometry N [1]	stoichiometry N [2]
pUL77 (natural protein)	2	–
portal protein pUL104 (natural protein)	–	12
